The text below walks through data of PMC3601010, “The complete N-terminal extension of heparin cofactor II is required for maximal effectiveness as a thrombin exosite 1 ligand” (BMC Biochemistry, 2013).

The test system of one experiment is human thrombin. The experiment in a line: thrombin clotting time in plasma. The format is biochemical. The method, then: Thrombin times were determined using Thrombin 10 (freeze-dried human thrombin with calcium [1.5 NIH units/mL] Diagnostica Stago, Asnieres, France) and an STA 4 coagulation analyzer (Diagnostica Stago). Citrated human plasma (25 μL) was combined with 75 μL veronal buffer (7.14 mM sodium acetate trihydrate, 7.4 mM sodium diethyl barbiturate, 131 mM NaCl pH 7.4) containing or lacking HCII- or hirudin-related peptides, and clotting time was determined following the addition of 100 μL Thrombin 10 reagent.
Figure 4 Effects of competitor peptides on thrombin clotting time. […] The mean ± the SD of 3 independent experiments is shown.

The target of experiment [1] is T1, thrombin (Homo sapiens, UniProt P00734).
T1 construct: purchased Enzyme Research, South Bend, IN; host or cells: HCII 1-75 probe made in house in E. coli TOP10
The experiment is described as follows: SPR competition of thrombin binding to chip-immobilized HCII 1-75. The method, then:
Surface plasmon resonance experiments were carried out using a BIAcore X biosensor instrument (Biacore, Piscataway, NJ) at 25°C. Biotinylated HCII- or hirudin-related peptides were immobilized on streptavidin-coated sensor chips (GE Healthcare) under conditions recommended by the manufacturer. […] A flow rate of 2 μL/minute was employed for immobilization runs, with 0.5 M NaCl employed as a regeneration buffer and HEPES-buffered saline (10 mM HEPES, 150 mM NaCl, 0.005% Tween-20, pH 7.7) otherwise used for binding determinations. Binding of thrombin (0-30 μM) was assessed using 20 μL injection volumes, and flow rates of 20 μL/minute. BIAcore Evaluation 3.2 (BIAcore) software was used to evaluate sensorgrams from each run, using either 1:1 Langmuir binding or steady state analysis. In some experiments various concentrations of HCII- or hirudin-related peptides were combined with 250 nM thrombin or FPR-ck-thrombin immediately prior to being flowed over chip-bound HCII 1-75.
Figure 6 Senorgrams from surface plasmon resonance (SPR) experiments. Biotinylated HCII 1-75 was bound to streptavidin-coated sensor chips and varying concentrations of thrombin were flowed over the chip, generating sensorgrams (e.g. Panel A) of the response in response units (RU) versus the time in seconds. Panel B is a plot of experiment shown in Panel A, combined with two other independent experiments; each point therefore represents the mean mid-plateau response ± the SD of 3 independent experiments. In panels C-F the thrombin concentration was fixed at 250 nM and competitor peptides identified in each panel were combined with thrombin and flowed over the chip. The concentration of competitor peptides in each experiment is shown to the left of the sensorgram.

In experiment [2] the target is T2, α-thrombin (Homo sapiens, UniProt P00734). The experiment in a line: competition of heparin-catalysed thrombin inhibition by plasma-derived HCII (k2app). The format is biochemical. More on the design: purchased Enzyme Research, South Bend, IN. The note with it: 250 μM competitor peptide, 140 nM plasma-derived HCII, 55 μg/mL standard heparin. As for the experimental part: (§1) The apparent second-order rate constant (k2app) of α-thrombin inhibition by purified plasma-derived HCII (Affinity Biologicals, Ancaster, ON) was determined under pseudo-first order conditions involving an excess of plasma-derived HCII over α-thrombin using a discontinuous assay as previously described, with or without addition of competitor HCII 1-75, HCII 54-75, or HCII 1-53 at 0.25 mM. Briefly, plasma-derived HCII (140 nM) was incubated with α-thrombin (14 nM) in PPNE buffer (20 mM Na2HPO4, pH 7.4, 100 mM NaCl, 0.1 mM EDTA, 0.1% polyethylene glycol 8000) supplemented with 0.055 mg/mL (2 μM) standard heparin (Hepalean, Organon Teknika Canada, St. Laurent, QC) and 10 μM S2238 (DiaPharma,West Chester OH) or 0.055 mg/mL (1.4 μM) dermatan sulfate (Sigma-Aldrich, St. Louis, MO). Residual protease activity was determined by diluting the reactions 100-fold into 100 μM S2238 and measuring the absorbance at 405 nm for 5 minutes using an EL808 plate reader (BioTek Instruments, Winooski, VT).
(§2) Figure 5 Effects of HCII-derived peptides on the inhibition of thrombin by plasma-derived HCII in the presence of GAGs. […] The competing peptides that were used separately at 250 μM were: HCII 1-75; HCII 54-75; or HCII 1-53. The mean ± the SD of 3 independent experiments is shown.

Experiment [3] has as its target T2, α-thrombin. The experiment in a line: competition of dermatan sulfate-catalysed thrombin inhibition by plasma-derived HCII (k2app). The format is biochemical. Details: purchased Enzyme Research, South Bend, IN. The following applies: 250 μM competitor peptide, 1.4 μM dermatan sulfate. As for the experimental part:
as §1, §2

In experiment [4] the target is T2, α-thrombin. The experiment is described as follows: competition of binding of α-thrombin to HCII 1-75 immobilized on microtiter plate wells. More on the design: purchased Enzyme Research, South Bend, IN; host or cells: HCII 1-75 probe made in house in E. coli TOP10. The note with it: 5 nM thrombin, 37°C 30 min, anti-thrombin antibody, OD 490 nm; mean of 3 determinations ± SD.
Description: Purified HCII 1-75 was immobilized onto an Immulon 4 HBX 96 well microtiter plate (Thermo, Milford MA), using a 1 μM solution of HCII 1-75 in PBS at 0.1 mL per well overnight at 4°C. The HCII solution was then removed and the wells blocked with 5% BSA (w/vol) in PBS-T for one hour at ambient temperature. […] Wells were washed and reacted with horseradish peroxidase-conjugated sheep anti-human thrombin antibody (Affinity Biologicals, Ancaster, ON), diluted 1:10,000 in blocking buffer, for one hour at ambient temperature. Following washes with PBS-T, colour was developed using a freshly made solution of 5 mg o-phenylenediamine (Pierce) in 12 mL of 25 mM citric acid, 97 mM Na2HPO4 pH5.0 supplemented with 0.03% (v/vol) hydrogen peroxide for ten minutes prior to stopping the reaction with sulfuric acid. The optical density at 490 nm was then read on an EL808 Plate reader (Biotek Instruments, Winooski, VT). […] The same program was used to calculate IC50s in competitive binding experiments in which HCII-derived or hirudin-derived peptides were used to compete the binding of thrombin to immobilized HCII 1-75.

For a further experiment, the target named is HCII. The note with it: ref [47]; read-out: KD, HCII-dermatan sulfate interaction; cited from earlier work. From the text:
(§3) The relative contributions to HCII function of a template mechanism, in which thrombin and HCII become co-localized due to their binding to the same glycosaminoglycan chain, or a conformational change mechanism, in which GAG binding to HCII releases the N-terminal extension of HCII for exosite 1 binding, remain somewhat controversial, as does the degree of cross-talk between thrombin’s exosites and active site.

For experiment [5], the target named is T1, thrombin. The following applies: ref [47]; read-out: KD, thrombin binding to dermatan sulfate; cited from earlier work.
Description: as §3

Experiment [6] deals with thrombin. The following applies: ref [21], cited from earlier work. The source says:
Although the differences between the encounter complex and the native structure support the allosteric model of activation, they provide no information on the position or role of the first 54 residues of HCII. […] We replicated this experiment and extended it to include all four of the exosite 1 ligand peptides employed in this study, as shown in Figure 4. We used the measurement previously employed to judge the potency of the peptides, the concentration required to double the thrombin clotting time. […] While there are no similar values in the literature available for HCII 1-75 for comparison to our results, ...

Experiment [7] has as its target T2, α-thrombin. The experiment in a line: amidolytic activity of thrombin against S2238 after modification. Type of experiment: biochemical. More on the design: purchased Enzyme Research, South Bend, IN. The note with it: bFPRck:thrombin molar ratio 10:1, TBS pH 7.4, ten minutes ambient. The method, then:
HCII- or hirudin-related peptides in 50 mM sodium phosphate pH 6.5 were combined with 20-fold molar excess sulfosuccinimidyl-6-(biotinamido) hexanoate (sulfo-NHS-LC-biotin, Pierce) at ambient temperature for 30 minutes. Reactions were quenched with excess Tris-Cl pH 7.4 and sulfo-NHS-LC-biotin removed by desalting or dialysis. Biotinylated FPR chloromethylketone (bFPRck; Haematologic Technologies, Essex Junction, VT) was used to modify α-thrombin at a bFPRck: thrombin molar ratio of 10:1 in Tris-buffered saline (TBS, pH 7.4) for ten minutes at ambient temperature. Excess reagent was removed by overnight dialysis versus TBS.

Entries after “also recorded” stand apart in the source; their conditions may differ. Ends that are not written are not given here.

“HCII 1-53: Synthetic peptide containing the first 53 residues of human HCII and a nonapeptide N-terminal tag ({Met-Gly-Ser-H2N-H2N-H2N-H2N-H2N-H2N}-GSKGPLDQLEKGGETAQSADPQWEQLNNKNLSMPLLPADFHKENTVTNDWIPE; UniProt P05546 20-72, looked up, fragment)”: the “effect on thrombin-mediated plasma clotting” value in the experiment on human thrombin (plasma clotting assay) is listed as “no effect; also recorded: no detectable ability to bind thrombin, to delay thrombin-mediated coagulation”. In the experiment with thrombin [1] (250 nM thrombin, chip-immobilized HCII 1-75, SPR 25°C, HBS pH 7.7, Ki from IC50 using KD 340 nM, mean of 3 determinations ± SD), the “Ki, inhibition of thrombin binding to HCII 1-75 (SPR)” value is reported as “No inhibition”. In the experiment with thrombin [1] (summary statement, discussion/conclusions), the “thrombin binding” value is “no detectable ability to bind thrombin; also recorded: did not bind to thrombin”. The “effect on thrombin binding to HCII 1-75” value with thrombin [1] (up to 250 μM competitor, 250 nM thrombin, SPR) is “no effect on thrombin binding to HCII 1-75”. Besides, the “effect on rate of thrombin inhibition by plasma-derived HCII, heparin” value with α-thrombin [2] is “no effect; also recorded: no detectable ability to bind thrombin, to delay thrombin-mediated coagulation, or to compete for the N-terminal HCII 1-75 extension in native HCII”. The “effect on rate of thrombin inhibition by plasma-derived HCII, dermatan sulfate” value with α-thrombin [3] is reported as “no reduction in the apparent rate of inhibition”.
Turning to “sulfo-Hir 54-65: Synthetic peptide containing the C-terminal 12 residues of hirudin, with Tyr63 sulfated [reference compound]”, the “concentration required to double the thrombin clotting time” value in the experiment on human thrombin (diluted citrated human plasma, Thrombin 10 reagent, mean of 3 determinations ± SD) came out at 0.150 ± 0.02 µM. In the experiment with thrombin [1] (250 nM thrombin, chip-immobilized HCII 1-75, SPR 25°C, HBS pH 7.7, Ki from IC50 using KD 340 nM, mean of 3 determinations ± SD, read-out: Ki, inhibition of thrombin binding to HCII 1-75 (SPR)), the Ki is 54 ± 90 nM. Also, the “fold more effective competitor of thrombin binding than HCII 1-75” value in the experiment with thrombin [1] (SPR competition) came out at 48 fold. Moreover, the IC50 with α-thrombin [4] was 140 ± 40 nM.
Turning to dermatan sulfate, the Kd was 236000 to 290000 nM on HCII and 2000 to 6000 nM on thrombin [5].
In the case of “HCII 54-75 peptide: synthetic peptide to HCII residues 54-75 of ref [21] (GEEDDDYLDLEKIFSEDDDYID; not fully specified (N-terminus); UniProt P05546 73-94, looked up, fragment)”, in the experiment on thrombin [6] (recalcified human plasma), the “fold less potent than sulfo-Hir 54-65 as inhibitor of thrombin-mediated clotting” value is “approximately 30 fold”. Besides, the “inhibition of thrombin activities” value in the experiment with thrombin [6] was “inhibition of thrombin-mediated fibrinogen cleavage and clot formation”.
With “Biotinylated FPR chloromethylketone [bFPRck]”, at α-thrombin [7], the “amidolytic activity of modified thrombin against S2238” value was “no detectable amidolytic activity against S2238”.
